In paper PMC5627055, “Interactions of the Bacillus subtilis DnaE polymerase with replisomal proteins modulate its activity and fidelity” (Open Biology, 2017):

Tests used:
[1] = target: T1, Bacillus subtilis PolC polymerase, wild type (B. subtilis, UniProt P13267 1-1437); test: native gel or EMSA; DnaE (1 µM) pre-incubated with radiolabelled primed 3'-mismatch (A:G) DNA substrate (0.66 nM) at 37°C for 5 min, then increasing PolC or PolC_(exo-) (25-1000 nM) and 5 min more at 37°C; 20 mM HEPES pH 7.5, 50 mM NaCl, 10 mM MgCl2, 1 mM DTT; 5% native polyacrylamide gel; ternary template-DnaE-PolC complex read from the shifted DNA; conditions: both partners purified
T1 construct: PolC, DNA polymerase of the C family with internal 3'>5' exonuclease domain, Bacillus subtilis; polC gene cloned into p2BT (p2BT-NT-HT-PolC); The N-terminal His-tag was removed with TEV protease during purification; also called wild-type PolC; source: E. coli BLR(DE3), purified (HisTrap, TEV cleavage, HisTrap flow through, HiTrap Q, Superdex-200); not shown: His-tag, N-terminal, cleaved

[2] = target: T2, Bacillus subtilis PolC_(exo-) (D425A/E427A) (B. subtilis, UniProt P13267 1-1437, D425A | E427A); test: as above; conditions: both partners purified
T2 construct: p2BT-NT-HT-PolC_(exo-); source: E. coli BLR(DE3), purified (HisTrap, TEV cleavage, HisTrap flow through, HiTrap Q, Superdex-200); not shown: His-tag, N-terminal, cleaved

DnaE [3] = target: T3, DnaE (Bacillus subtilis, UniProt O34623 1-1115); test: EMSA; 10 mM Mg2+; EMSA: 20 mM HEPES pH 7.5, 50 mM NaCl, 10 mM MgCl2, 1 mM DTT, 0.66 nM radiolabelled substrate, 37 C 5 min; 5% native PAGE; conditions: protein: recombinant; tags: N-terminal His6-MBP removed by TEV; 15 bp duplex; 15 nt 5' overhang of template (primer-template)
PolCexo- [4] = target: T4, PolCexo- (Bacillus subtilis, UniProt P13267 1-1437, D425A;E427A); test: EMSA; 10 mM Mg2+; no detectable stable complex; EMSA: 20 mM HEPES pH 7.5, 50 mM NaCl, 10 mM MgCl2, 1 mM DTT, 0.66 nM radiolabelled substrate, 37 C 5 min; 5% native PAGE; conditions: protein: recombinant; tags: N-terminal His tag removed by TEV; 15 bp duplex; 15 nt 5' overhang of template (primer-template)
DnaE [5] = target: T3, DnaE; test: EMSA; 10 mM Mg2+; multiple shifted bands; EMSA: 20 mM HEPES pH 7.5, 50 mM NaCl, 10 mM MgCl2, 1 mM DTT, 0.66 nM radiolabelled substrate, 37 C 5 min; 5% native PAGE; conditions: protein: recombinant; tags: N-terminal His6-MBP removed by TEV; label: radiolabel at 5' end; single strand
DnaE [6] = target: T3, DnaE; test: EMSA; 10 mM Mg2+; 1 uM DnaE; EMSA: 20 mM HEPES pH 7.5, 50 mM NaCl, 10 mM MgCl2, 1 mM DTT, 0.66 nM radiolabelled substrate, 37 C 5 min; 5% native PAGE; conditions: protein: recombinant; tags: N-terminal His6-MBP removed by TEV; 14 bp duplex; 3'-terminal primer mismatch; 15 nt 5' overhang of template
PolCexo- [7] = target: T4, PolCexo-; test: EMSA; 10 mM Mg2+; 1 uM PolCexo-; no detectable stable complex; EMSA: 20 mM HEPES pH 7.5, 50 mM NaCl, 10 mM MgCl2, 1 mM DTT, 0.66 nM radiolabelled substrate, 37 C 5 min; 5% native PAGE; conditions: protein: recombinant; tags: N-terminal His tag removed by TEV; 14 bp duplex; 3'-terminal primer mismatch; 15 nt 5' overhang of template
DnaE;PolCexo- = DnaE;PolCexo- (Bacillus subtilis;Bacillus subtilis, UniProt O34623;P13267 1-1115;1-1437, |D425A;E427A); test: EMSA; 10 mM Mg2+; 1 uM DnaE, 25-1000 nM PolCexo-; ternary complex; EMSA: 20 mM HEPES pH 7.5, 50 mM NaCl, 10 mM MgCl2, 1 mM DTT, 0.66 nM radiolabelled substrate, 37 C 5 min; 5% native PAGE; conditions: protein: recombinant;recombinant; tags: N-terminal His6-MBP removed by TEV;N-terminal His tag removed by TEV; copies: 1;1; 14 bp duplex; 3'-terminal primer mismatch; 15 nt 5' overhang of template
DnaE;PolC = DnaE;PolC (Bacillus subtilis;Bacillus subtilis, UniProt O34623;P13267 1-1115;1-1437, |); test: EMSA; 10 mM Mg2+; 1 uM DnaE, 25-1000 nM PolC; ternary complex, then DNA digested by PolC; EMSA: 20 mM HEPES pH 7.5, 50 mM NaCl, 10 mM MgCl2, 1 mM DTT, 0.66 nM radiolabelled substrate, 37 C 5 min; 5% native PAGE; conditions: protein: recombinant;recombinant; tags: N-terminal His6-MBP removed by TEV;N-terminal His tag removed by TEV; copies: 1;1; 14 bp duplex; 3'-terminal primer mismatch; 15 nt 5' overhang of template

B1: Bacillus subtilis DnaE polymerase, wild type (enzyme, B. subtilis, UniProt O34623 1-1115, looked up)
chain: MSFVHLQVHSGYSLLNSAAAVEELVSEADRLGYASLALTDDHVMYGAIQFYKACKARGINPIIGLTASVFTDDSELEAYPLVLLAKSNTGYQNLLKISSVLQSKSKGGLKPKWLHSYREGIIAITPGEKGYIETLLEGGLFEQAAQASLEFQSIFGKGAFYFSYQPFKGNQVLSEQILKLSEETGIPVTATGDVHYIRKEDKAAYRCLKAIKAGEKLTDAPAEDLPDLDLKPLEEMQNIYREHPEALQASVEIAEQCRVDVSLGQTRLPSFPTPDGTSADDYLTDICMEGLRSRFGKPDERYLRRLQYELDVIKRMKFSDYFLIVWDFMKHAHEKGIVTGPGRGSAAGSLVAYVLYITDVDPIKHHLLFERFLNPERVSMPDIDIDFPDTRRDEVIQYVQQKYGAMHVAQIITFGTLAAKAALRDVGRVFGVSPKEADQLAKLIPSRPGMTLDEARQQSPQLDKRLRESSLLQQVYSIARKIEGLPRHASTHAAGVVLSEEPLTDVVPLQEGHEGIYLTQYAMDHLEDLGLLKMDFLGLRNLTLIESITSMIEKEENIKIDLSSISYSDDKTFSLLSKGDTTGIFQLESAGMRSVLKRLKPSGLEDIVAVNALYRPGPMENIPLFIDRKHGRAPVHYPHEDLRSILEDTYGVIVYQEQIMMIASRMAGFSLGEADLLRRAVSKKKKEILDRERSHFVEGCLKKEYSVDTANEVYDLIVKFANYGFNRSHAVAYSMIGCQLAYLKAHYPLYFMCGLLTSVIGNEDKISQYLYEAKGSGIRILPPSVNKSSFPFTVENGSVRYSLRAIKSVGVSAVKDIYKARKEKPFEDLFDFCFRVPSKSVNRKMLEALIFSGAMDEFGQNRATLLASIDVALEHAELFAADDDQMGLFLDESFSIKPKYVETEELPLVDLLAFEKETLGIYFSNHPLSAFRKQLTAQGAVSILQAQRAVKRQLSLGVLLSKIKTIRTKTGQNMAFLTLSDETGEMEAVVFPEQFRQLSPVLREGALLFTAGKCEVRQDKIQFIMSRAELLEDMDAEKAPSVYIKIESSQHSQEILAKIKRILLEHKGETGVYLYYERQKQTIKLPESFHINADHQVLYRLKELLGQKNVVLKQW
notes: DnaE, DNA polymerase of the C family (DnaE3 group), Bacillus subtilis; dnaE gene cloned into p2CT (p2CT-NT-HT-DnaE); also called DnaEWT; source: E. coli BL21 (DE3) Rosetta, purified (HisTrap, TEV cleavage, HisTrap flow through, ammonium sulfate, HiTrap Q); not shown: His6, N-terminal, cleaved
binding result [1]: binds | binding result [2]: binds

B2: DNA-primed 30mer template (dsDNA)
DNA 1: ACACACACACACACACACACACACCCCCTT
DNA 2: AAGGGGGTGTGTGTG
binding result (DnaE [3]): binds | binding result (PolCexo- [4]): no binding

ACACACACACACACACACACACACCCCCTT (ssDNA) [ssDNA 30mer]
binding result (DnaE [5]): binds

B3: 3'-mismatch (A:G) DNA-primed 30mer template (dsDNA)
DNA 1: B2 DNA 1
DNA 2: AAGGGGGTGTGTGTA
binding result (DnaE [6]): binds | binding result (PolCexo- [7]): no binding | binding signal (DnaE;PolCexo-): ~4 fold shifted substrate vs DnaE alone (up to) | binding result (DnaE;PolC): binds
